Experimental findings from PMC3629905 (Biochemistry, 2013) are described below.

In data set [1] the target is GKL (quorum-quenching lactonase from Geobacillus kaustophilus) (Geobacillus kaustophilus, UniProt Q5KZU5, E101G/R230C/D266N).
Data set [2] relates to CCCCCC(=O)CC(=O)N[C@H]1CCOC1=O. As to the kind of experiment: purified protein. The note with it: pH 8.3; 37.0 °C.
Data set [3] has as its system CCCC(=O)CC(=O)N[C@H]1CCOC1=O. Description: purified protein. The note with it: pH 8.3; 37.0 °C.

As for `CCCC(=O)NC1CCOC1=O` (racemic) [C4-HSL, N-butyryl-L-homoserine lactone], in data set [1], the “X-ray crystal structure, 2.2 Å” value is “its catalytically inactive variant E101G/R230C/D266N with the quorum-molecule C4-HSL bound in the active site”.

The term Km denotes the substrate concentration at which the rate is half of its maximum. What is called kcat/Km is the second-order rate constant that governs catalysis at low substrate concentration. On to “GKL (quorum-quenching lactonase from Geobacillus kaustophilus) (Geobacillus kaustophilus HTA426)”, for which, in data set [2], the Km turned out to be 5.5 ± 2.1 mM and the kcat/Km came to 38 M⁻¹ s⁻¹.

As to “GKL (quorum-quenching lactonase from Geobacillus kaustophilus) (Geobacillus kaustophilus HTA426; E101G/R230C)”, in data set [3], the Km is 22 ± 12 mM and the kcat/Km amounted to 50 M⁻¹ s⁻¹. Moreover, in data set [2], the Km is given as 3.0 ± 0.4 mM and the kcat/Km turned out to be 700 M⁻¹ s⁻¹.

Take “GKL (quorum-quenching lactonase from Geobacillus kaustophilus) (Geobacillus kaustophilus HTA426; E101N)”: in data set [2], the Km is reported as 4.0 ± 3.2 mM and the kcat/Km is 53 M⁻¹ s⁻¹.
